This note sets out measurements from article PMC8682759.

For the series, the target named is beta-actin (monomeric, G-actin) (human, UniProt P60709 2-375). Kind of series: fluorescence turn-on of BHQ1 probe; apparent; 10 mM Mg2+, BHQ1 probe; 10 mM Tris-HCl pH 7.6, 100 mM KCl, 10 mM MgCl2 (Kd assays), room temperature; RNA 3 uM with actin 3 uM preincubated 30 min at 25 C, then probe 1 uM (final) in 2.

B1: AcP-TRap3 (structured_RNA)
RNA: GGAUCCAAGCUUGUUUGGCCCAAUAACGUCGAUUGAUUGUGGCCUAGAUAAAUUCGGAGCUUUCAAUGAAUUACACAACAAUGCUUUCGACGGAGAAUUC
As to B1, the Kd was 1000 nM.

B2: AcP-TRap1 (structured_RNA)
RNA: GGAUCCAAGCUUGUUUGGCUCCAACCGUCCCCGCGUAUAUGGCCUAGAUAAAUUCGGAGCUUUUUGCCCAUCCUCAUAUAUUGCUUUCGACGGAGAAUUC
As for B2, the Kd is 1500 nM.

B3: AcP-TRap2 (structured_RNA)
RNA: GGAUCCAAGCUUGUUUGGCAUUCCACGUCGAUAAAAGAUUGGCCUAGAUAAAUUCGGAGCUUAAAAUUCCCUCCUAUCUUUUGCUUUCGACGGAGAAUUC
B3: the Kd is 600 nM.

B4: AcP-TRap4 (structured_RNA)
RNA: GGAUCCAAGCUUGUUUGGCCCAAUUCCUCGUCUUCAGACUGGCCUAGAUAAAUUCGGAGCUUGUUCACAACCUCUACUUCCUGCUUUCGACGGAGAAUUC
As for B4, the Kd worked out at 200 nM.
